Results reported in paper PMC5131612 (Journal of Structural Biology, 2016).

How the values were obtained:
His-USP1 (21-785) = target: T1, His-USP1 (21-785) (human, UniProt O94782 21-785); assay: SEC-MALS
T1 sequence (looked up): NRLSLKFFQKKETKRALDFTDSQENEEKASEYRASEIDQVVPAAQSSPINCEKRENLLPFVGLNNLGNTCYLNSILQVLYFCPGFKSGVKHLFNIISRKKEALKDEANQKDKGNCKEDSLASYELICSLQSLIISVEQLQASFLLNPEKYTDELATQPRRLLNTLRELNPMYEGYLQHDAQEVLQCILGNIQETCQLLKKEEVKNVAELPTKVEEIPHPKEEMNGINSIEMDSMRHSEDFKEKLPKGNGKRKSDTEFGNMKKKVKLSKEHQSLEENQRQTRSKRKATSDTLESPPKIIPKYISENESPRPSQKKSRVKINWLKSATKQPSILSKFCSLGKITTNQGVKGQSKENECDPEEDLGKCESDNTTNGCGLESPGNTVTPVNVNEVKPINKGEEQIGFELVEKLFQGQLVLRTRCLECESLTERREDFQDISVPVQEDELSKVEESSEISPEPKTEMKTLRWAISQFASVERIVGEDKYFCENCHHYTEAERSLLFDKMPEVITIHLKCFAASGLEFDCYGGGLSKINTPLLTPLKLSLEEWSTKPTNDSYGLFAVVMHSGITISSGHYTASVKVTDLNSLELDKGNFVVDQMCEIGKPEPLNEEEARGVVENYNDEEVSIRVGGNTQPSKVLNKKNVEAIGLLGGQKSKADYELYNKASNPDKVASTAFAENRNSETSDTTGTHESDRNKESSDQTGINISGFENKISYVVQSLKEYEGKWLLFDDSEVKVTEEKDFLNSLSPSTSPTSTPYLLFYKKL

GST-USP12WT (24-370) = GST-USP12WT (24-370) (human, UniProt O75317 24-370); assay: SPR
Sequence of GST-USP12WT (24-370) (O75317 24-370): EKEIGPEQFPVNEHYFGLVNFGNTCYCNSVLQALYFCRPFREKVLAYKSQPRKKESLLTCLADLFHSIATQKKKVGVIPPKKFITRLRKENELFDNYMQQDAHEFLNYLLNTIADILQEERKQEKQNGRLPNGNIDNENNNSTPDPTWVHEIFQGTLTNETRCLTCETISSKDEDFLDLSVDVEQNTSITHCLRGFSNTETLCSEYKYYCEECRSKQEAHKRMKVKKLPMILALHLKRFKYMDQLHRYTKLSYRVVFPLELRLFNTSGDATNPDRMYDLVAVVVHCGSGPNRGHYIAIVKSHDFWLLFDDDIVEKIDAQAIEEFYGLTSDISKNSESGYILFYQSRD

stoichiometry N (His-USP1 (21-785)): 2 UAF1 per USP1
Kd of the second binding event (GST-USP12WT (24-370)): 325 nM
B1: UAF1FL, UAF1 (9-677) (natural protein)
chain: not shown
